Laboratory results as given in the nanobody polyreactivity screen of Harvey et al. (2022).

experiment: yeast display, Sf9 membrane polyspecificity reagent, FACS + sequencing; frameworks hold sequencing errors
Summary of the method: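 In a synthetic yeast display library (Saccharomyces cerevisiae BJ5465), nanobody expression was induced with galactose for 36–48 hours. FACS gates were set low and high (top ~1%) using anti-HA fluorescence for expression and streptavidin fluorescence for binding of the Sf9 membrane reagent. Each polyreactivity label is drawn from the gate of origin.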

| Sequence | polyreactivity (PSR sort gate) |
| --- | --- |
| QVQLVESGGGLVQAGGSLRLSCPASGSIFNKNAMGWYRQAPGKERELVAAISSGGSTYYADSVKGRFTISRDNAKNTVYLQMNSLKPEDTAVYYCARGASFYQKFYYWGQGTQVTVSS | high polyreactivity |
| HVQLVESGGGLVQAGGSLRLSCAASGSTFSYNAMGWYRQAPGKEWELVAAISWRGTSTYYADSVKGRFTISRDNAKKTVYLQMNSLKPEDTAVYYCAAPYGVSYKGATYDSWGQGTQVTVSS | high polyreactivity |
| QVQLVESGGGLVQAGGSLRLSCAASGNTYGRYAMGWYRQAPGKERELVAAISSSGTSTYYADSVKGRFTISRDNAKNTVYLQMNSLKPVDTAVYNCGAVYWTFWGTIASRYDYWGQGTQVTVAS | high polyreactivity |
| QVQLVESGGGLVQAGGSLRLSCAASGRIFYTYAKGLSRQAPRKERELVATISNSGGSTYYADSVKGRFTISRDNAKNTVYLQMNSLKPEDTAVYSCAKDERAAPSASYAYYYWGQGTLVTVSS | low polyreactivity |
| QLQLVDSGGGLVQAGGSLRLSCAASGSIFAQYAMGWYRQAPEKERELVADISGDGSTYYADSVKGRFTISRDNAKNTVYLQMNSLKPEDTAVYYCADRKLYGSPEHGYWGQGTQVTVSS | high polyreactivity |
| QVHLVESGGGLVQAAGSLRLSCAASGRIFSYNAMGWYRPAPGKERELVAAISSDGSTYYADSVKGRFTISRDNAKNTVYLQMNSLKPEDTAVYYCAASQVVWFDYTTAQVGSYKVNYWGQGTQVSVSS | low polyreactivity |
| QVQLVESGGGLVQAGGSLRLSCAASGRIFPRYAMGWYRQAPGKERELVARITRRGGITYYADSVKGRFTISRDNAKNTVYLQRNSLIPEDTAVYYCNVDYYSGGEFSYGYDYWGQGTQVTVSS | high polyreactivity |
| QVQLVESGGGLVQAGGSLRLSCAASGFTFYRYAMGWYRQAPGQEREVVAAIRKSGGSTYYADSVKGRFTISRDNAKTTVYLQMNSLKPEDTAVYYCAKRYATDGFGYWGQGTQVTVSS | high polyreactivity |
| QVQLVESGGGLVQAGGSLRLSCSASGSISHYAMGWYRQAPGKERELVAAISRRGGSTYYADSVKGRFTISRDNAKNTVYLQKNSLKPEDTAVYYCNKATSYFTVRGYDYCGQGTQVTVSS | high polyreactivity |
| QVQLVESGGGLVQAGGSLRLSCAASGSIFDIYGMGWYRKAPGKERELVASISGGAGSTNYADSVKGRFTISRDNAKNTVYLQMNSLKPEDTAVYYCAAEVYVPDYFQHKFDVEYEYWGQGTQVTVSS | low polyreactivity |
| QDQLVESGGGLFQAGGSLRLSCAASGFTFVDYTMGWYRQEPGKEREFVAAISSSGGSTYYADSVKGRITISRDYAKNTVYFQMNSLKPEDTAVYYCKADAINKRGGRDYWGQGTQVTVSS | high polyreactivity |
| QLQLVESGGGFVQAGGSLRLSCAASGSTFQIYTMGWYRQAPGKERELVAAITNGGGSTYYADSVKGRFTISRDKANNTVYLQMNSLKPEDTAVYYCAAEQRYPLIILYDYWGQGTQVTVSS | low polyreactivity |
| QVQLVESGGGLVQAGGSLRLSCAASGITFEDYAMGWYRQAPGKERELVAAISWSGDITYYADSVKGRFTISRDNAKNTVYLQMNSLKPVDTAVYYCAADLSPYGYDYWGQGTQVTVSS | low polyreactivity |
| QVQLEESGGGLVQAGGSLRLSSAASGYIFDWYAMGWYRQAPGKEREFVAAISGSDGSTYYADSVKGRFTISRDNAKNTVYLQMNSLKPVDTPVYYCAADPYYGDMEYWGQGTQVTVSS | low polyreactivity |
| QVQHVESGGGLVQAGGSLRLSCAASGRTIIKYAMGWYRQAPGKERELVAAISRSAGSTYYADSVKGRFTISRDNAKNTVYLQMNSLKPEDTAVYYCNAVTSSYLRFDYWGQGTQVTVSS | high polyreactivity |
| QVQHVESGGGLVQAGGSLRLSCAPSGSTFYNNAMGWYRQAPGKERELVAAITRSGGSTYYADSVKGRFTISRDNAKNTVYLQMNSLKPEDTEVYYCNKYGYKGGVGYDYWGQGTQVTVSS | high polyreactivity |
| QVQLVESGGGLVQAGGILRLSCAASGYIFVRNAMGWYRQAPGKERELVAAISGSGGSTYYADSVKGRFTISRDNAKNTVYLQMNRLKPEDTEVYYCAADYATVTWRGIAYDYWGQGTQVTVSS | low polyreactivity |
| QVQLVESGGGLVQAGGSLRLSCAASGIIFYDYAMGWYRPAPGKERELVAAINYSGGSTYYADSVKGRFTISRDNAKNTVYLQMNSLKPEDTAVYYCAADNAVWEYDYWGQGTQVTVSS | low polyreactivity |
| QVQLVESGGGLVQAGGSLRLSCAASGIIFTGYTMGWYRQAPGKERELVAAITWRGGSTYYADSVKGRFTISRDNAKNTVYLQMNSLKPEDTAVYYCAAEGWYSWDDDYWGQGTQVTVSS | low polyreactivity |
| QVQHVESGGGLVQAGGSLRLSCAASGRTYGYYAMGWYRQAPGKERELVAAITRTGGSTHYADSVKGRFTISRDNAKNTVYLQMNSLKPEDTAVYYFARTSRHVRYDYWGEGTQVTVSS | low polyreactivity |
| QVQLVESGGGLVQAGGSLRLSCAASGRIFDYNGMGWYRQAPGKERELVAAIRLSDGSTYYADSVKGRFTISRDNAKNTVYLQMNSQKPEDTAVYYCADVGKNRSWYDYWGQGSQVTVSS | high polyreactivity |
| QVQLVESGGGLVQAGGSLRLSCAASGHIFSYYAMGWYRQAPGKERELVAAISSSGSSTYYADSVKGRFTISRDNAKNTVYLQMNSLKPEDTAVYYCNAPYIAWYDGDYWGQGTQVTVSS | low polyreactivity |

| Sequence | polyreactivity (PSR sort gate) |
| --- | --- |
| QVRLVESGGGLVQAGGSLRLSCAASAFTFDSYAMGWNRQAPGKERELVAAITWSGGSTYYADSVKGRFTISRDIAKNTVYFQMNSLKPEDTAVYYCNVDRYDGDYCGQGTQVTVSS | high polyreactivity |
| QVQLVESGGGLVQAGGSLRLSCDASGPIFAWNGMGWYRPAPGKERELVAVITSGGNTNYADSVKGRFTFSLDNAKNTVFIQMNSLKPEDTAVYDCATKGYAKRTRFWSHYDYWGQGTQVNVSS | high polyreactivity |
| QVQLVESGGGLVQAGGSLRLSCAASGIIFITYAMGWYRQAPGKERELVAAITNSGGGTYYADSVKGRFTNSRDNAKNTVYLQMNSLKPEDTAVYYCAARKTAYGYRYDYWGQGTQVTVSS | high polyreactivity |
| QVQLVESGGGLVQEGGSLRLSCAASGSSFCSYAMGRYRQAPGKERELVAAISSSGDSTYADSVKGRFTMSRDNAKNTVYLQMNSLKPEDTAVYYCAVGGAGSDDYWGQGTQVTVSS | low polyreactivity |
| QVQLVESGGGLVQAGGSLRLSCAASGSTFAYYTMGWYRQAPGKERELVAAISASGGSTYYADSVKGRFTISRDFAKNTVYFQMNSLKPEDTAVYYCNAESYLTGWWVDYWGQGTQVTVSS | low polyreactivity |
| QVQLVESGGGLVQAGGSLRLSCAASGSTFNYNAMGWYRQAPGKERELVAAITYSGSSTYYADSVKGRFTISRDNAKNTVYLQMNSLKPEDTAVYYCAAPPYNRPGYGYDYWGQGTQVTVSS | high polyreactivity |
| QVQLVESGGGLDQAGGSLRLSCAASGRTFGKYAMGWYRQAPGKERELVAAITGGGGTKYADSVKGRFTISRDNAKNTFYLQMNSLKPEDTAVYYCAAASGSRRHGFWGQGTQVTVSS | high polyreactivity |
| QVQLVESGGGLVQAGGSLRLSCAAYGRIFYYNAMGWFRQAPGKERELVASIDNGGSTNYADSVKGRFTISRDNAKNTVYLQMNSLKPEDTAVYYCNVDLYYEVSHVFLYEYDYWGQGTQVTVSS | low polyreactivity |
| QVQLVESGVGLVQAAGSLRLSCAASGRIFKYYAMGWYRQAPGKERELVATISRGSRTNYADSVKGRFTISRDNAKNTVYLQMNSLKPEDTAVYYCAAQRLSASRPYGYWGQGTQVTVSS | high polyreactivity |
| QVQLVESGGGLVQAGGSLRLSCAASGSIFASNAMGWYRQAPGKERELVAAITSSGRTKYADSVKGRFTISRDNAKNTVYFQMNSLKPEDTAVYYCAAVYYTYFGRYDYWGQGTQVTVSS | high polyreactivity |
| QVQLVESGGGLVQEGGSLRLSCAASGSIFGWYAMGWYRQAPGKEWELVAAIRRGGSTNYADSVKGRFTISRDNAKNTVYLQMNSLKAEVTAVYYCAAGKSGYSKRIFRYSFDYWGQGTQVTVSS | high polyreactivity |
| QVQLVESGGGLVQAGGSLRLSCAASGYTFPIYAMGWYRQAPGKEREVVATISSGGRTNYADSVKGRFTISRDNAKNTVYLQMNSLKPEDTAVYYCNARRLGWHALYLYDYWGQGTQVTVSS | high polyreactivity |
| QVQLVESGGGLDQAGGSLRLSCAASGNTFIRNALGWYRQAPGIERELVAAITSGTSTYYADSVKGRFTISRDNAQKTVYLQMNSLKPEDTALYYCAKRRNYWHYYWGQGTQVTVSS | high polyreactivity |
| QVQLVESGGGLVQAGGSLRLSCAASGRIFATYAMGWSRQAPGKERELVAAISDGGGITYYADSVKGRFTISRDNAKNTVYLQMNSLKPDDTAVYYCARTYARYNFGYWGQGTQVTVSS | low polyreactivity |
| QVQLVESGGGLVQAGGSLRLSCAASGSTFTINAMGWYRQAPGKERELVAAISRSGVRTFYADSVKGRFTNSRDNAKNTVYLQRNSLKPEDTAVYYCAKQTYRVTTDEGDYWGQGTQVTVSS | high polyreactivity |
| QVQLVESGGGLVQSGGSLRLSCAASGSIFGYYAMGWYRRAPGKERELVAAISVSGGSTYYADSVKGRFTISRDNAKNTVYLLMNSLKPEDTAVYYCNKVQGSWRVPYYYWGQGTQVTVSS | high polyreactivity |
| QVQLVESGGGLVQAGGSLRLSCAASGSTFEVNAMGWYRQAPGKERELVASITDGGITNYADSVKVRFTISRDNAKNTVYLQMNSLKPEDTAVYYCAAVGWYYSYYYFWGGYWGQGTQVTVSS | high polyreactivity |
| QVQLVESGGGLVQAGGSLRLSCAPSARTFVYNAMGWYRQAPGKERELVAAIDGGGDRTYYADSVKGRFTISRDNAKYTVYIQMYSLKPEDTAVYYCARDPGDTYYYSYPEGDYWGQGTQVTVSS | low polyreactivity |
| QVQLVESGGGLVQAGGSLRLSCAASGSTFYDYAMGWYRQAPGKESELVAAITSSGASTYYADSVKGRFTISRDNAKNTVYLQMNSLKPEDTAVYYCAARKVWRSIRVALDYWGQGTQVTVSS | high polyreactivity |
| QVQLVESGGGLVQAGGSLRLSCAASGFTFALNAMGWYRQAPGKERELVAAISSRGGSTYYADSVKGRFTISRDNAKNTVYLQMNSLKPEDTAGYYCAKDYKADSRFSPYGYWGQGTQVTVSS | high polyreactivity |
| QVQLVESGGGLVQAGCSLRLSCAASGLIFPGYDMGWYRQAPGKERELVADISDSGANTYYADSVKGRFTISRDNAKNTVYLQMNSLKPEDTAVYYCAADSSWWYGTSFGRFDYWGQGTQVTVSS | low polyreactivity |
